Molecular target: PARP-1 WT (human) (UniProt P09874)
Assay: fluorescence polarization
Conditions: 250 mM NaCl, FP affinity: 12 mM Hepes pH 8.0, 250 mM NaCl, 4% glycerol, 5.7 mM beta-mercaptoethanol, 0.05 mg/ml BSA, RT, 5 nM probe, FP competition: same but 60 mM KCl, 8 mM

PARP-1 WT (human), sequence (P09874 whole entry): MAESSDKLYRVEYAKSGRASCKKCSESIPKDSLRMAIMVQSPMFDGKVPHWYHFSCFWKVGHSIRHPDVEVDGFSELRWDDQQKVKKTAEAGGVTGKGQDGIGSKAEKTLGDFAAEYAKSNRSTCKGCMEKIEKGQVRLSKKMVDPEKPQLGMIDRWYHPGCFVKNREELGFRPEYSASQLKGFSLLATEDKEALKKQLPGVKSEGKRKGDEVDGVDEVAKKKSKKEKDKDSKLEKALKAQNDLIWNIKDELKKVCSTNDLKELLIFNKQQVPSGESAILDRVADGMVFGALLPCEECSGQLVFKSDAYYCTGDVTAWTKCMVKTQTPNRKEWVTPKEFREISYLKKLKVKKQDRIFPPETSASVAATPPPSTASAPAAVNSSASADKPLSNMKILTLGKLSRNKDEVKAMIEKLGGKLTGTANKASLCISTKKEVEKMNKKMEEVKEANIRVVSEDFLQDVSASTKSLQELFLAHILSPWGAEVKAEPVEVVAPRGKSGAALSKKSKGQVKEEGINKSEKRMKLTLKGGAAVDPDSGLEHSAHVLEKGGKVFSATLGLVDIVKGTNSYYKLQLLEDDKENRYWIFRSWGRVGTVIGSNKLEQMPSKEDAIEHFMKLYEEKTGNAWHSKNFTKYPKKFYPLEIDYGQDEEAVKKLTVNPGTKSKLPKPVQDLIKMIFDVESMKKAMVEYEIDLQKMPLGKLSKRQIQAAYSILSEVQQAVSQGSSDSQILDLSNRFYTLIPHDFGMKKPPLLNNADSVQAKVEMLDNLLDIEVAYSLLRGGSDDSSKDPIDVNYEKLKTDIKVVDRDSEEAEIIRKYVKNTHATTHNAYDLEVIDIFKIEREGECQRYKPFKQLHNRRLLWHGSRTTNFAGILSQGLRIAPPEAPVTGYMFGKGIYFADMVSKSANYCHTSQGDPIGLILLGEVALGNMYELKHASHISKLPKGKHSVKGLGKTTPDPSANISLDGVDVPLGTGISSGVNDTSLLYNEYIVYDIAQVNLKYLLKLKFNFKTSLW

GCTGAGCTTCTGGTGAAGCTCAGCTCGCGGCAGCTGGTGCTGCCGCGA [nick dumbbell DNA, FAM]
binding signal (fold higher affinity than without BAD) (100 uM BAD): 10
binding signal (100 uM benzamide, scale: fold): 1

Reference: PMC5829251, “NAD^+ analog reveals PARP-1 substrate-blocking mechanism and allosteric communication from catalytic center to DNA-binding domains” (Nature Communications, 2018)
